# Experimental data reported in publication PMC8211771.
# B1: BT2857 (Bacteroides thetaiotaomicron VPI-5482) (protein)
# chain: CAEDMVKPIENDKDAPGTVQDVKTESLPGAVKFTYTLPSDPDLLYVLAKYTNKTGKVMEFRSSFYTNSVTVEGFGDTDTYKVELYTVDRSENRSQPQIVEVVPLTPPILSCYESLSMVSDFGGMTFEMDNKFKSDLAIYVCTPDELGDMVLAETFYSAREEIVYSVRGYDAVPRRFGIFLQDKYGNETDTLFTELTPIYERELDKTKFREMYLQNDSRVDSYDGKMEYVWNGRISKDGDSGGVGLHTGTGTKDGPAVFTFDLGVLAKLSRFALWAIQDEKHFYNDMSPRRYEVWGCATEPNPDGSWDQWVKLLDMENVKPSGSPIGILTEDDIEAAKIGDQANVPLDMPRVRYIRIKCLKNWSNNYNICFTELTFWGNDNEE
# B2: BT2857C (Bacteroides thetaiotaomicron VPI-5482) (protein)
# chain: ELDKTKFREMYLQNDSRVDSYDGKMEYVWNGRISKDGDSGGVGLHTGTGTKDGPAVFTFDLGVLAKLSRFALWAIQDEKHFYNDMSPRRYEVWGCATEPNPDGSWDQWVKLLDMENVKPSGSPIGILTEDDIEAAKIGDQANVPLDMPRVRYIRIKCLKNWSNNYNICFTELTFWGND
# B3: BT3158 (Bacteroides thetaiotaomicron VPI-5482) (protein)
# chain: CEDVETHKPYGDGSGHAPGTVQVTSYEQIPGGVTLKFIAPTDEDLLYIKIKYTLDNGKEMEARASLYTDETTIEGFGNTNPKKLVISAVNKMEKEGEAIITEIVPGKPAYLTAIEEIEVNPTFGGIYIHTTNGGRNYLIFDVSTKDSKGNWNIEHTEYTSVKNIGFTLRGFSAEPHDFKVRVRDLYDNQSEEYLTTLTPLYEEKLDLTKFKTFYLANDIKMDNAGHTLESLFNGDHGLNSWNYAHGYDFNPSEFPVWFTFDMGQTAQLSRFTSWQRSMGGSYYYRAGAIKEWEVWGRSDLPSSDGSWDGWTKLADCESIKPSGWPTGSNSEEDITYASKGEEFEFLADIPPVRYIRFKILSTHDGAGLVVMQQLWFYGTPIQ
# B4: BT2857N (Bacteroides thetaiotaomicron VPI-5482) (protein)
# chain: CAEDMVKPIENDKDAPGTVQDVKTESLPGAVKFTYTLPSDPDLLYVLAKYTNKTGKVMEFRSSFYTNSVTVEGFGDTDTYKVELYTVDRSENRSQPQIVEVVPLTPPILSCYESLSMVSDFGGMTFEMDNKFKSDLAIYVCTPDELGDMVLAETFYSAREEIVYSVRGYDAVPRRFGIFLQDKYGNETDTLFTELTPIYERELDKT
# Substrate: O=[N+]([O-])c1ccc(O[C@@H]2O[C@H](CO)[C@H](O)[C@H](O)[C@H]2O)cc1
# Assay: purified protein
# Conditions: 100 mM phosphate-based buffer, 5 μM protein
# [1] = pH 8.0, 20 °C (room temperature), Figure 6 legend gives 0.13 mM (±0.010), pH 8.0
# [2] = pH 8.0, 20 °C (room temperature), Figure 6 legend gives 0.047 mM (±0.005), pH 8.0
# [3] = pH 8.4, 20 °C (room temperature), Figure 6 legend gives 0.052 mM (±0.007), pH 8.4
# [4] = pH 8.0, 20 °C (room temperature), Figure 6 legend gives 0.07 mM (±0.012), pH 8.0
protein,measurement,setting,value
B1,kcat,[1],0.046 s⁻¹
same,kcat/Km,[1],354 M⁻¹ s⁻¹
B2,kcat,[2],0.011 s⁻¹
same,kcat/Km,[2],234 M⁻¹ s⁻¹
B3,kcat,[3],1.21 s⁻¹
same,kcat/Km,[3],23300 M⁻¹ s⁻¹
B4,kcat,[4],0.046 s⁻¹
same,kcat/Km,[4],657 M⁻¹ s⁻¹
